From article PMC5141497, “NMR studies on the interactions between yeast Vta1 and Did2 during the multivesicular bodies sorting pathway” (Scientific Reports, 2016)

Target: T1, Vta1 N-terminal domain (residues 1–167) (S. cerevisiae, UniProt Q06263 1-167)
T1 construct: Vta1, S. cerevisiae, N-terminal domain with two tandem MIT domains, residues 1-167; Isotope labelled (15N, 13C, 70% 2H) or unlabelled, depending on the NMR sample; also called Vta1NTD; WT Vta1NTD; source: E. coli BL21(DE3), purified (Ni-NTA, ULP1 cleavage, second Ni-NTA, Resource Q); not shown: His6, N-terminal, cleaved; SUMO, N-terminal, cleaved
T1 sequence (looked up): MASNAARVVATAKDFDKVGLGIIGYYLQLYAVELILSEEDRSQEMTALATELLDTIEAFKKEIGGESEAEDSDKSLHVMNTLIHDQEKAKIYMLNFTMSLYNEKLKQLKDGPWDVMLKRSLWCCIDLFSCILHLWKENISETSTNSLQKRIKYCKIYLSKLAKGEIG
Assay: ITC; about 0.1 mM Vta1NTD titrated with 2.0 mM Did2_(176–204) peptide, iTC-200, 25 °C, 25 mM sodium phosphate pH 7.0, 50 mM NaCl, one set of sites model
Details: both partners purified

B1: Did2 fragment (176–204 aa) (peptide)
chain: WNVPEIKAKEVNVDDEKEDKLAQRLRALRG
notes: extra tryptophan inserted at the N-terminus of the peptide to estimate its concentration; Natural stretch with one added N-terminal Trp; Isotope labelled (15N, 13C) or unlabelled, depending on the NMR sample; source: E. coli BL21(DE3), purified (Ni-NTA, Resource Q, ULP1 cleavage, Superdex 75), lyophilized; not shown: His6, N-terminal, cleaved; SUMO, N-terminal, cleaved
- Kd: 12.8 ± 1 µM
- dH: -2.7 kcal/mol
- stoichiometry N: 1.16 ± 0.0266
